T1: biotin labeled antigen peptide (a fragment of the CD20 extracellular domain) (human, UniProt P11836 163-187, limits assumed, biotin labeled (position not given))
T1 construct: domain: a fragment of the CD20 extracellular domain; also called short peptide CD20; CD20 antigen
T1 peptide (looked up): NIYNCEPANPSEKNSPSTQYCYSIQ

B1: anti-CD20 chimeric antibody Rituximab (C2B8), un-mutated, expressed in CHO-K1 cells in this filing (antibody, human IgG1, kappa, V domains shown)
VH: QVQLQQPGAELVKPGASVKMSCKASGYTFTSYNMHWVKQTPGRGLEWIGAIYPGNGDTSYNQKFKGKATLTADKSSSTAYMQLSSLTSEDSAVYYCARSTYYGGDWYFNVWGAGTTVTVSA
VL: QIVLSQSPAILSASPGEKVTMTCRASSSVSYIHWFQQKPGSSPKPWIYATSNLASGVPVRFSGSGSGTSYSLTISRVEAEDAATYYCQQWTSNPPTFGGGTKLEIKR
notes: Whole chimeric IgG1 kappa; also called WT; un-mutated C2B8
B2: C2B8 antibody mutant Rmut4 (H102YR) (antibody, V domains shown)
VH: B1 VH with Y102R
VL: QIVLSQSPAILSASPGEKVTMTCRASSSVSYIHWFQQKPGSSPKPWIYATSNLASGVPVRFSGSGSGTSYSLTISRVEAEDAATYYCQQWTSNPPTFGGGTKLEIK
B3: C2B8 antibody mutant Rmut5 (H102YS) (antibody, V domains shown)
VH: B1 VH with Y102S
VL: B2 VL
B4: C2B8 antibody mutant Rmut6 (H102YT) (antibody, V domains shown)
VH: B1 VH with Y102T
VL: B2 VL
B5: C2B8 antibody mutant Rmut3 (H57DE) (antibody, V domains shown)
VH: B1 VH with D57E
VL: B2 VL
B6: C2B8 antibody mutant Rmut7 (H102YK) (antibody, V domains shown)
VH: B1 VH with Y102K
VL: B2 VL
B7: C2B8 antibody mutant Rmut1 (H55NE) (antibody, V domains shown)
VH: B1 VH with N55E
VL: B2 VL
B8: C2B8 antibody mutant Rmut2 (H55NR) (antibody, V domains shown)
VH: B1 VH with N55R
VL: B2 VL

The values that follow come from patent US20120191435A1 (SHANGHAI NATIONAL ENGINEERING RESEARCH CENTER OF ANTIBODY …, published 2012).

Positions count from the first letter of the chain named.

The term Kd denotes the free concentration of one partner at which half of the binding sites on the other are occupied at equilibrium, for simple one-to-one binding.

The target of one test is T1, biotin labeled antigen peptide (a …). Description: Biacore SPR, biotin-CD20 peptide on SA chip, antibody in flow. A general note: Surface plasmon resonance follows binding to a sensor surface in real time, without labels.
Description: (§1) A SA chip was balanced in 50 μl/min of PBS solution for 30 minutes at 25° C. and then activated three times with activation solution of 1M NaCl and 50 mM NaOH, for 1 minute per time. […] Then the chip was balanced in 50 μl/min of PBS solution for 10 minutes. The balanced SA chip was blocked with 0.04% of biotin solution. The antibody was diluted to five concentrations by double dilution. The samples were loaded at the flow rate of 50 μl/min for 75 seconds and dissociated with PBS solution for 10 minutes.
In turn, B1 gave a dissociation constant (Kd) of 44.1 nM. This lies in the double-digit nanomolar range.

For another test the target is unchanged. Description: Biacore SPR, biotin-CD20 peptide on SA chip; ratio against commercially available rituximab.
Description: as §1
Turning to B2, the KdRitu/Kdmutant was determined as 2.23.

Regarding B3, the KdRitu/Kdmutant is 2.35. On the same count and under the same terms, then B4, with 2.34; and B5, with 7.73; and B6, with 5.04. For B7, the KdRitu/Kdmutant stood at 0.69. On the same count and under the same terms, for B8 the value was 0.78.

The target is the same in a further test. Description: Biacore SPR, biotin-CD20 peptide on SA chip; ratio against un-mutated C2B8 (WT).
Description: as §1
For the molecule B2, the KdWT/Kdmutant amounted to 1.75. On the same count and under the same terms, then B3, with 1.85; and B4, with 1.84; and B5, with 6.08. On the same count and under the same terms, then B6, with 3.96; and B7, with 0.54; and B8, with 0.61.
